# Experimental data: patent US9193963B2, “Mutant endoglucanase” (Toray Industries, Inc., priority 2011, dated 2015)
# Substitutions are numbered along the chain they refer to.
# B1: EGAc Wild-type: Acidthermus cellulolyticus-derived endoglucanase, SEQ ID NO: 31, parent endoglucanase (protein)
# chain: MPRALRRVPGSRVMLRVGVVVAVLALVAALANLAVPRPARAAGGGYWHTSGREILDANNVPVRIAGINWFGFETCNYVVHGLWSRDYRSMLDQIKSLGYNTIRLPYSDDILKPGTMPNSINFYQMNQDLQGLTSLQVMDKIVAYAGQIGLRIILDRHRPDCSGQSALWYTSSVSEATWISDLQALAQRYKGNPTVVGFDLHNEPHDPACWGCGDPSIDWRLAAERAGNAVLSVNPNLLIFVEGVQSYNGDSYWWGGNLQGAGQYPVVLNVPNRLVYSAHDYATSVYPQTWFSDPTFPNNMPGIWNKNWGYLFNQNIAPVWLGEFGTTLQSTTDQTWLKTLVQYLRPTAQYGADSFQWTFWSWNPDSGDTGGILKDDWQTVDTVKDGYLAPIKSSIFDPVGASASPSSQPSPSVSPSPSPSPSASRTPTPTPTPTASPTPTLTPTATPTPTASPTPSPTAASGARCTASYQVNSDWGNGFTVTVAVTNSGSVATKTWTVSWTFGGNQTITNSWNAAVTQNGQSVTARNMSYNNVIQPGQNTTFGFQASYTGSNAAPTVACAAS
# modifications: Acidthermus cellulolyticus EGAc
# B2: EGAc Mutant: mutant EGAc, SEQ ID NO: 32; residue corresponding to 273rd tryptophan substituted with alanine (protein)
# chain: B1 chain with W254A
# modifications: Acidthermus cellulolyticus EGAc W254A
# notes: residue corresponding to 273rd tryptophan substituted with alanine
# B3: EGPa Wild-type: Pyrococcus abyssi-derived endoglucanase, SEQ ID NO: 25, parent endoglucanase (protein)
# chain: MEIKLFCVFIVFIILFSPFVIALSYPDVNYTAENGIIFVQNVTTGEKKPLYLHGVSWFGFELKDHVVYGLDKRNWKDILKDVKRLGFNAIRLPFCSESIRPDTRPSPERINYELNPDLKNLTSLEIMEKIIEYANSIGLYILLDYHRIGCEEIEPLWYTENYSEEQYIKDWIFLAKRFGKYPNVIGADIKNEPHGEAGWGTGDERDFRLFAEKVGREILKVAPHWLIFVEGTQYTHVPNIDEIIEKKGWWTFWGENLMGVKDYPVRLPRGKVVYSPHVYGPSVYMMDYFKSPDFPNNMPIIWETHFGYLTDLNYTLVIGEWGGNYEGLDKVWQDAFVKWLIKKKIYNFFYWCLNPESGDTGGIFLDDWKTVNWEKMRVIYRLIKAANPEFEEPLYIILKTNATTSILGVGERIRIYWYTNGKVIDSNFAHSSEGEMNITVTKSMTLYIIVKKGNQTLRKELKLYVIGGNYGSNISTTQLVTPKKGGERISTSLKLAISLLFILLFVWYLLREKH
# modifications: Pyrococcus abyssi EGPa
# B4: EGPa Mutant: mutant EGPa, SEQ ID NO: 26; residue corresponding to 273rd tryptophan substituted with alanine (protein)
# chain: B3 chain with W253A
# modifications: Pyrococcus abyssi EGPa W253A
# notes: as for B2
# Experiments:
# [1] = Activity to degrade phosphoric acid swollen cellulose; assay type: biochemical; conditions: 1% phosphoric acid swollen cellulose, pH 5.2, enzyme 0.5 μM, 1 hour, 50° C.; glucose generated by each parent endoglucanase = 100%
# Method: The term “identity” refers to the percentage of amino acid residues identical to and amino acid residues analogous to the other amino acid residues in all the amino acid residues overlapped when an optimum alignment is performed by introducing gaps or no gaps into two amino acid sequences and then aligning the two amino acid sequences. Such an identity can be found using a method known by persons skilled in the art, sequence analysis software, and the like (a known algorithm such as BLAST or FASTA). The term “endoglucanase activity” is as defined above and can be determined by adding an enzyme solution to a substrate solution of phosphoric acid swollen cellulose that has been dissolved in 50 mM acetic acid-sodium acetate buffer (pH 5.2) or the like, performing 1 hour of reaction at 30° C. to 85° C., stopping the reaction by changing the pH if necessary, and then determining the concentration of glucose in the reaction solution using a glucose determination kit, for example.
# The mutants obtained in Comparative Example 1 were compared in terms of activity by a technique similar to that in Example 3. The concentration (g/L) of glucose generated by each parent endoglucanase under the above reaction conditions was determined to be 100%.
# [2] = Inhibition experiment with vanillin: degradation of phosphoric acid swollen cellulose; assay type: biochemical; conditions: enzyme 0.5 μM, 1 hour, 50° C., parent at 0 mM = 100%
# Method: (§6) This substance was diluted using buffer and water to obtain a 2 wt % mixture so that the final concentration of sodium acetate was 50 mM (pH 5.2). This was designated as phosphoric acid swollen cellulose and used for the following examples.
# The activity of the wild-type and the mutant endoglucanases to degrade phosphoric acid swollen cellulose in the presence of vanillin was measured. 1% phosphoric acid swollen cellulose/50 mM acetate buffer (pH 5.2) was used as a substrate. Vanillin (Sigma Aldrich) was added at final concentrations of 0, 5, 10, and 15 mM. The enzymes prepared in Reference Example 1 and Example 2 were added at a final concentration of 0.5 μM, followed by 1 hour of enzymatic reaction at 50° C.
# [3] = Inhibition experiment with ferulic acid: degradation of phosphoric acid swollen cellulose; assay type: biochemical; conditions: enzyme 0.5 μM, 1 hour, 50° C., parent at 0 mM = 100%
# Method: as §6
# The activity of the wild-type and the mutant endoglucanases to degrade phosphoric acid swollen cellulose was measured in the presence of ferulic acid. 1% phosphoric acid swollen cellulose/50 mM acetate buffer (pH 5.2) was used as a substrate. Ferulic acid (Sigma Aldrich) was added at final concentrations of 0, 5, 10, and 15 mM. The enzymes prepared in Reference Example 1 and Example 2 were each added at a final concentration of 0.5 μM, followed by 1 hour of enzymatic reaction at 50° C.
# [4] = Saccharification of lignocellulose 1 with Celluclast and endoglucanase; assay type: biochemical, Rice straw; conditions: 5 wt % Lignocellulose 1, pH 5.2, 50° C., 24 hours; 1.0 mg/mL cellulase + 0.1 mg/mL endoglucanase
# Method: (§1) Rice straw was used as cellulose. The cellulose was added to a small reactor (Taiatsu Techno Corporation, TVS-N2 (30 ml)), and then cooled with liquid nitrogen. An ammonia gas was fed to the reactor, thereby completely immersing the sample in the liquid ammonia. The reactor was closed using its lid, and then left to stand at room temperature for 15 minutes. Subsequently, treatment was performed for 1 hour in an oil bath at 150° C. After treatment, the reactor was removed from the oil bath, an ammonia gas leak was immediately performed within a draft chamber. The reactor was vacuumed using a vacuum pump to 10 Pa for drying. The resultant was used as lignocellulose 1 in the following examples.
# (§2) The changes in the amount of glucose generated when the enzyme composition had been caused to act on lignocellulose substrates were compared. The substrates were prepared by suspending 5 wt % lignocelluloses (1 to 3) (prepared in Reference Example 3) in 50 mM acetate buffer (pH5.2). Reactions were performed at 50° C. for 24 hours. The concentrations of the generated glucose were measured after adequate sampling. As a filamentous bacterium-derived cellulase mixture, commercially available Trichoderma reesei-derived cellulase (Celluclast, Sigma) was used. As endoglucanases, the mutant endoglucanases prepared in Example 2 and the wild-type endoglucanases prepared in Reference Example 1 were separately used. The following quantities of enzymes were added: 1.0 mg/mL cellulase, and 0.1 mg/mL endoglucanase (in an amount one tenth that of the cellulase).
# [5] = Saccharification of lignocellulose 2 with Celluclast and endoglucanase; assay type: biochemical, Rice straw; conditions: 5 wt % Lignocellulose 2, pH 5.2, 50° C., 24 hours; 1.0 mg/mL cellulase + 0.1 mg/mL endoglucanase
# Method: (§3) Rice straw was used as cellulose. Cellulose was immersed in a 1% aqueous sulfuric acid solution, and then autoclaved for 30 minutes at 150° C. (Nitto Koatsu Co. Ltd.). After treatment, the resultant was subjected to solid-liquid separation into an aqueous sulfuric acid solution (hereinafter, referred to as “dilute-sulfuric-acid-treated solution”) and cellulose treated with sulfuric acid. Next, the cellulose treated with sulfuric acid was mixed and agitated with the dilute-sulfuric-acid-treated solution so that the solid content concentration was 10 wt %. Then the mixture was adjusted to around pH 5 using sodium hydroxide. The resultant was used as lignocellulose 2 for the following examples.
# as §2
# [6] = Saccharification of lignocellulose 3 with Celluclast and endoglucanase; assay type: biochemical, Rice straw; conditions: 5 wt % Lignocellulose 3, pH 5.2, 50° C., 24 hours; 1.0 mg/mL cellulase + 0.1 mg/mL endoglucanase
# Method: (§4) Rice straw was used as cellulose. The cellulose was immersed in water, and then autoclaved with agitation at 180° C. for 20 minutes (Nitto Koatsu Co. Ltd.). Pressure at this time was 10 MPa. After treatment, a solution component (hereinafter, referred to as “hydrothermally treated solution”) and the treated biomass component were subjected to solid-liquid separation by centrifugation (3000 G). The thus treated biomass component was used as lignocellulose 3 for the following examples.
# as §2
# [7] = Saccharification of lignocellulose 1 with Trichoderma reesei culture solution and endoglucanase; assay type: biochemical, Rice straw; conditions: Lignocellulose 1, 24 hours; cellulase 1.0 mg/mL + endoglucanase 0.1 mg/mL + β-glucosidase (Novozyme 188) 0.01 mg/mL
# Method: as §1, §2
# (§5) Lignocelluloses (1-3) prepared in Reference Example 3 were used as substrates. The Trichoderma reesei culture solution prepared in Reference Example 4 was used as a filamentous bacterium-derived cellulase mixture. Lignocelluloses (1-3) were hydrolyzed in a manner similar to that in Example 7, except for the quantities of the enzymes added: cellulase (1.0 mg/mL); endoglucanase (0.1 mg/mL (in an amount one tenth that of the cellulase); and β-glucosidase (Novozyme 188) (0.01 mg/mL (in an amount one hundredth that of the cellulase).
# [8] = Saccharification of lignocellulose 2 with Trichoderma reesei culture solution and endoglucanase; assay type: biochemical, Rice straw; conditions: Lignocellulose 2, 24 hours; cellulase 1.0 mg/mL + endoglucanase 0.1 mg/mL + β-glucosidase (Novozyme 188) 0.01 mg/mL
# Method: as §3, §2, §5
# [9] = Saccharification of lignocellulose 3 with Trichoderma reesei culture solution and endoglucanase; assay type: biochemical, Rice straw; conditions: Lignocellulose 3, 24 hours; cellulase 1.0 mg/mL + endoglucanase 0.1 mg/mL + β-glucosidase (Novozyme 188) 0.01 mg/mL
# Method: as §4, §2, §5
Molecule,Relative activity [1],Relative activity to degrade phosphoric acid swollen cellulose ([2]; vanillin 0 mM),Relative activity to degrade phosphoric acid swollen cellulose ([2]; vanillin 5 mM),Relative activity to degrade phosphoric acid swollen cellulose ([2]; vanillin 10 mM),Relative activity to degrade phosphoric acid swollen cellulose ([2]; vanillin 15 mM),Relative activity to degrade phosphoric acid swollen cellulose ([3]; ferulic acid 0 mM),Relative activity to degrade phosphoric acid swollen cellulose ([3]; ferulic acid 5 mM),Relative activity to degrade phosphoric acid swollen cellulose ([3]; ferulic acid 10 mM),Relative activity to degrade phosphoric acid swollen cellulose ([3]; ferulic acid 15 mM),"Concentration of glucose generated, Celluclast + Wild-type [4]","Concentration of glucose generated, Celluclast + Wild-type [5]","Concentration of glucose generated, Celluclast + Wild-type [6]","Concentration of glucose generated, Culture solution + Wild-type [7]","Concentration of glucose generated, Culture solution + Wild-type [8]","Concentration of glucose generated, Culture solution + Wild-type [9]","Concentration of glucose generated, Celluclast + Mutant [4]","Concentration of glucose generated, Celluclast + Mutant [5]","Concentration of glucose generated, Celluclast + Mutant [6]","Concentration of glucose generated, Culture solution + Mutant [7]","Concentration of glucose generated, Culture solution + Mutant [8]",further results
B1,100%,100%,50%,45%,40%,100%,65%,60%,55%,11 g/L,11 g/L,11 g/L,8 g/L,8 g/L,8 g/L,–,–,–,–,–,–
B2,100%,100%,100%,95%,95%,100%,100%,100%,95%,–,–,–,–,–,–,16 g/L,14 g/L,14 g/L,13 g/L,11 g/L,"Concentration of glucose generated, Culture solution + Mutant [9]: 11 g/L"
B3,100%,100%,40%,40%,40%,100%,60%,50%,50%,12 g/L,12 g/L,11 g/L,9 g/L,9 g/L,8 g/L,–,–,–,–,–,–
B4,100%,100%,90%,90%,90%,100%,95%,90%,90%,–,–,–,–,–,–,14 g/L,16 g/L,15 g/L,11 g/L,13 g/L,"Concentration of glucose generated, Culture solution + Mutant [9]: 12 g/L"
